Experimental findings from patent US20220049021A1 are described below.

human FLT3-ligand (H8Y) human hingeless IgG1 fusion protein (SEQ ID NO:22) (Fc fusion), sequence (chain): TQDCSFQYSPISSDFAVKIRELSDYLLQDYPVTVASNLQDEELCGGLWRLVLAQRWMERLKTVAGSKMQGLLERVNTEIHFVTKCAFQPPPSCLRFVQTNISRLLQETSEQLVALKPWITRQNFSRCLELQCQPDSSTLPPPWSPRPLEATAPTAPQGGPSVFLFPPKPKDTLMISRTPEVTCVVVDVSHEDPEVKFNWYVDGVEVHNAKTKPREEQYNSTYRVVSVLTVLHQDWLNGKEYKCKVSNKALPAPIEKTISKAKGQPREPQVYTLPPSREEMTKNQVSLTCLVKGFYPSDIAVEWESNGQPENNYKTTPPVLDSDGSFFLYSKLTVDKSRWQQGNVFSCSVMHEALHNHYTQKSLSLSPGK
human FLT3-ligand human IgG1 fusion protein (SEQ ID NO:21) (Fc fusion), sequence (chain): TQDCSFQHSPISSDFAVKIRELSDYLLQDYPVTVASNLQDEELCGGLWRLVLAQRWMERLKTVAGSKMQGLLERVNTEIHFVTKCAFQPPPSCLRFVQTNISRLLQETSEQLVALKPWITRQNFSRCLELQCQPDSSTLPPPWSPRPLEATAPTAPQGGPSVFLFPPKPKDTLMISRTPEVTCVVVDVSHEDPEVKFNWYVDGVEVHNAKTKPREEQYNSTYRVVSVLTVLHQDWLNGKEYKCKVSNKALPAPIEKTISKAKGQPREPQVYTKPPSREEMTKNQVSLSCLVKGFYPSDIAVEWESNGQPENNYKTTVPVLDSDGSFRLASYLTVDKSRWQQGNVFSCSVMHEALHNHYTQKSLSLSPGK

The target in this assay is T1, human FLT3 on AML5 cells (human) (UniProt P36888).
T1 sequence (looked up): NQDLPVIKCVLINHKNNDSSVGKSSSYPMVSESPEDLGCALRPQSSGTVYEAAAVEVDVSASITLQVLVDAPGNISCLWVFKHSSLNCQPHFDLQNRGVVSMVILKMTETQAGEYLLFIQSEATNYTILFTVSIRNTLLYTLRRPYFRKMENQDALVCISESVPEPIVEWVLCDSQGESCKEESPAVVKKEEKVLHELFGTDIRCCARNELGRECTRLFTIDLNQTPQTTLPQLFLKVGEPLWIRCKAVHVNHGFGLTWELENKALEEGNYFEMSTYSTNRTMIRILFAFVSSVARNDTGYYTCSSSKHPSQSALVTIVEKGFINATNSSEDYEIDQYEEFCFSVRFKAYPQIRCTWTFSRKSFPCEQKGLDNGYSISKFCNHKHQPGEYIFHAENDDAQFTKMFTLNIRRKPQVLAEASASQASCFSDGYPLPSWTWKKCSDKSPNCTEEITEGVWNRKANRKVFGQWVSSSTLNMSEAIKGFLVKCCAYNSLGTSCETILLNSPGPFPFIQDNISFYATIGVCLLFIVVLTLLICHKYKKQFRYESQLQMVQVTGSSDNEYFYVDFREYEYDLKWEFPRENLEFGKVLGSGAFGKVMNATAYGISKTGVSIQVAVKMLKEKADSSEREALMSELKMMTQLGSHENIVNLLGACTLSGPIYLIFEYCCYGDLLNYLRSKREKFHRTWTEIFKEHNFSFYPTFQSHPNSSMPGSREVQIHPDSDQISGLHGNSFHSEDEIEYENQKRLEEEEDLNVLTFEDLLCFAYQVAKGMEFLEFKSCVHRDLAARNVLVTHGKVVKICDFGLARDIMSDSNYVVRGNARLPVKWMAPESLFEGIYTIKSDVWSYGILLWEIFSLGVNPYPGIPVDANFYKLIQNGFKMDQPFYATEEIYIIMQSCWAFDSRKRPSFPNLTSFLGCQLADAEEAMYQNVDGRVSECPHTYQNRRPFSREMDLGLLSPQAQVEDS
As to the kind of experiment: cell-based or functional assay.
Turning to “human FLT3-ligand (H8Y+K84E) human hingeless IgG1 fusion protein (SEQ ID NO:24) (Fc fusion)”, the EC50 (nM), Inducing Proliferation of AML5 Cells amounted to 0.013 nM and the potency in AML5 proliferation against SEQ ID NO:1 worked out at 2.5 fold. In the same order, the values of “human FLT3-ligand (H8Y) human hingeless IgG1 fusion protein (SEQ ID NO:22) (Fc fusion)” are 0.014 nM and 2.5 fold. Regarding “human FLT3-ligand human IgG1 fusion protein (SEQ ID NO:21) (Fc fusion)”, the EC50 (nM), Inducing Proliferation of AML5 Cells was 0.035 nM.

For the substance “human FLT3-ligand (K84E) human hingeless IgG1 fusion protein (SEQ ID NO:23) (Fc fusion)”, the EC50 (nM), Inducing Proliferation of AML5 Cells came to 0.013 nM and the potency in AML5 proliferation against SEQ ID NO:1 was 2.5 fold.
